In experiment [1] the target is T1, carbonic anhydrase 12 (CA-XII) as expressed by human tumor cell lines (human, UniProt O43570 25-354).
T1 construct: also called CA12; CA12 antigen
Put plainly: flow cytometry, percent positive cells, HCT116 (colon). Here is the method: (§1) 27B6 and 4B4 monoclonal antibodies were analyzed for binding to various cell lines obtained from KCLB (Korean Cell Line Bank) and SNU (Seoul National University) using flow cytometry. Briefly, various cell lines were obtained from KCLB (Korean Cell Line Bank) and SNU (Seoul National University). At 37° C. under a 5% CO₂ atmosphere, L-132, SW-900, DU145, LNCap, MCF-7, Huh7, and Hs-578T were cultured in Dulbecco's MEM (GIBCO, Invitrogen) supplemented with 10% heat-inactivated fetal bovine serum (FBS; GIBCO, Invitrogen) and A549, NCI-H460, NCI-H417, DLD-1, HCT116, HT-29, SW-480, SW-620, LS174T, PC-3, SNU1, SNU638, SNU719, MKN1, MKN28, MKN45, MKN74, NCI-N87, SK-BR3, MDA-MB231, and MDA-MB453 were cultured in RPMI 1640 (GIBCO, Invitrogen) supplemented with 10% heat-inactivated FBS. […]
(§2) The cultured cancer cell lines were incubated with the 27B6 or the 4B4 monoclonal antibody of the present disclosure at 4° C. for 30 min, washed with PBS, and treated with FITC-conjugated goat anti-mouse IgG (DiNona Inc, Korea) at 4° C. for 15 min. […] Also, titers of the 27B6 and the 4B4 antibody were measured in various solid tumor cell lines.
(In general: A flow cytometer gives signals particle by particle.)

Experiment [2] has as its target T1, carbonic anhydrase 12 (CA-XII) as …. Put plainly: flow cytometry (A549 cells, per paragraph 117). Here is the method: (§3) Three days post transfection, the supernatant was taken and added to A549 cells which were then incubated at 4° C. for 30 min. Unbound antibodies were removed by centrifugation, together with 3 ml of PBS, at 1500 rpm for 3 min. The bound antibodies were detected by incubation with a 150-fold dilution of the secondary antibody goat anti-Mouse Ig-FITC (Dinona) at 4° C. for 15 min, followed by washing with 3 ml of PBS in the same manner. Thereafter, the antibody titer to A549 cells was measured using flow cytometry. Subsequently, a stable cell line was established. For this, the medium was exchanged with a PowerCHO medium (LONZA, Switzerland) supplemented with 30 nM MTX (Sigma, USA) and 200 μg/ml G418 (Invitrogen, USA), after which clone selection was started. Concentrations of MTX and G418 in the selection medium were increased with the repetition of clone selection rounds. Each round was set to be three weeks. The final round of clone selection was performed in a PowerCHO medium supplemented with 1000 nM MTX and 400 μg/ml G418. Thereafter, the final cell line was established as a single colony through limiting dilution.

The target is the same in experiment [3]. Put plainly: flow cytometry, percent positive cells, NCI-H460 (lung). Here is the method: as §1, §2
Experiment [4] shares this target. Put plainly: flow cytometry (A549 cells, per paragraph 138). Here is the method: as §3, with “to A549 cells, which were” for “to A549 cells which were”, “was measured by flow cytometry.” for “was measured using flow cytometry.”, “1000 nM of MTX and” for “1000 nM MTX and”, “400 μg/ml of G418. Thereafter,” for “400 μg/ml G418. Thereafter,”

T1 sequence (O43570 25-354 limits assumed): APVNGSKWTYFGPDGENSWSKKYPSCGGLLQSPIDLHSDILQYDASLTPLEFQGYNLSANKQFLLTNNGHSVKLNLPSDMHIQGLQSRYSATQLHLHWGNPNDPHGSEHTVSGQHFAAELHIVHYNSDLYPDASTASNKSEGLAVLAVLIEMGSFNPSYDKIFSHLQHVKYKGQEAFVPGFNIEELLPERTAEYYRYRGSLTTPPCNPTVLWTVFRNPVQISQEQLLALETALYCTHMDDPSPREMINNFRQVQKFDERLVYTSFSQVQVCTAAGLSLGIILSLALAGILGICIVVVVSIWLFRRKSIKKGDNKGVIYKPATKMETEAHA

B1: 27B6 monoclonal antibody (antibody, mouse IgG1, V domains shown)
VH: QVQLQQSGPQLVWPGASVKISCNTSGYSFTNYWIHWVKQRPGQGLEWIGMIDPSDSETRLNQKFKDKTTLTVDRSSSTAYMQVSSSTSEDSAVYYCTRGIRGGYYAMDYWGQGTSVTVSS
VL: DIQMTQTTSSLSASLGDRVTISCRASQDISNYLNWYQQKPEGTVKLLIYYTSRLHSGVPSRFSGSGSGTDYSLTISNLEQEDIATYFCQQGDTLPRTFGEGTKLEIR
notes: also called 27B6 Ab; mouse 27B6 antibody
As for B1, the binding result in experiment [1] is “binds”.

B2: 27B6 chimeric antibody (antibody, V domains shown)
VH: QVQLQQSGPQLVWPGASVKISCNTSGYSFTNYWIHWVKQRPGQGLEWIGMIDPSDSETRLNQKFKDKTTLTVDRSSSTAYMQVSSSTSEDSAVYYCTRGIRGGYYAMDYWGQGTSVTVSS
VL: DIQMTQTTSSLSASLGDRVTISCRASQDISNYLNWYQQKPEGTVKLLIYYTSRLHSGVPSRFSGSGSGTDYSLTISNLEQEDIATYFCQQGDTLPRTFGEGTKLEIR
notes: Chimeric antibody: mouse 27B6 variable regions, the rest 'substituted with the Fc of the human antibody'; Produced in CHO DG44 cells; also called chimeric 27B6; 27B6-HuIgFc
For the molecule B2, the binding result in experiment [2] is reported as “binds”.

B3: 4B4 monoclonal antibody (antibody, V domains shown)
VH: EIQLQQSGPELVKPGASVKISCKASGYSYTDYNIYWVRQSQGKSLDWIGYIDPANGDTTYNQKFKGKATLTVDKSSSTAFMHLNSLTSDGSAVYFCARPIYYGVYWYFDVWGAGTTVTVS
VL: DIVMTQAAPSVPVTPGESVSISCRSSKSLLHSNGNTYLYWFLQRPGQSPQLLIYRMSNLASGVPDRFSGSGSGTAFTLRISRVEAEDVGVYYCMQHLEYPFTFGSGTKLEIK
notes: Mouse hybridoma antibody; also called 4B4 Ab; mouse 4B4 antibody
Take B3: the binding result in experiment [3] is “binds”.

B4: 4B4 chimeric antibody (antibody, V domains shown)
VH: EIQLQQSGPELVKPGASVKISCKASGYSYTDYNIYWVRQSQGKSLDWIGYIDPANGDTTYNQKFKGKATLTVDKSSSTAFMHLNSLTSDGSAVYFCARPIYYGVYWYFDVWGAGTTVTVS
VL: DIVMTQAAPSVPVTPGESVSISCRSSKSLLHSNGNTYLYWFLQRPGQSPQLLIYRMSNLASGVPDRFSGSGSGTAFTLRISRVEAEDVGVYYCMQHLEYPFTFGSGTKLEIK
notes: Chimeric antibody: mouse 4B4 variable regions, the rest 'substituted with the Fc of the human antibody'; Produced in CHO DG44 cells; also called chimeric 4B4; 4B4-HuIgFc
B4: the binding result in experiment [4] was “binds”.

Values taken from patent publication US20170342161A1 (APROGEN KIC, published 2017).
